Assay results as given in the supplement of paper PMC9170038.

The sequences below were run on K4 kissing-loop RNA reporter (assay: apparent KD of K4 kissing-loop reporter; higher = weaker reporter binding). Conditions: Eterna round: R107; input ligand: none.
Experimental: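 RNA-MaP round R107: designed RNA switches with theophylline, tryptophan, arginine or FMN aptamers are transcribed on-chip within common flanks. They are titrated with a labelled K4 kissing-loop RNA reporter in RNA-MaP buffer (100 mM Tris pH 7.5, 80 mM KCl, 4 mM MgCl2), without ligand or with the indicated ligand. Median apparent KD per design.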
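Further: bound reporter read as fluorescence of individual clusters on recovered sequencing chips by microscopy, with normalized cluster intensities fitted with a binding model.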

Row | Sequence | apparent KD of K4 kissing-loop reporter
1 | GGAUAGGACAGAGGAUAUGGAGCUAGGCAAGAAUAACUUGUCUAGCAAUCCAUGAGGAGUGAUGUUCCAGAAGGCUGUCCUAUCG [FmnBX 2 - #SwitchBubble #StraticStem #DoubleMagnetSystem] | 0.155 µM
2 | UAGGAUUUUUCGGCCGCCACUCUAGAUUCUGUGUAUUAUCUACGACUUGAAGUGAUGUUUCAGGAGAGGACCGGGAAGAUAUAAC [theeternabot_exclusion_KL_Trp_B_27] | 0.238 µM
3 | AAUAUAUUGUGAAGGAGCGCGAAAAGCAGUGAUGUUGCUUACUUACAAUUUAUUUUUUACACGCAGGUAGGUCGCACAAUAUAUA [JR_SSArginiB_Sub015] | 0.269 µM
4 | GGGUGUAGUGCGGCCGCCACUGUGAAAGUAGAAGAAUAUAGUGAUGUUAUAUAGGAUUAAAAGAAUAGGACCGGGCAUUAGACUU [#23 K4 Tryptophan B Same State] | 0.284 µM
5 | UGUCAUUGGUCUGAUACCAGAUGAUAAUCUGGAGUGAUGUUCCAAGAACGACAAAGUCGCAUCCCUUGGCAGCAGACCGAUGACU [TheoBS 18 #SwitchBubble 13 #StaticStem] | 0.236 µM
6 | CCAUUCUUUUACGAUACCAGUUUAAUUUAUUUAUUCAUAACCCUUGCCGAGUGAUGUUCGGACCCUUGGCAGCGUUUGCGAGAGG [vvuvmullin] | 0.463 µM
7 | CCGAGUAGCUCCGAUACCAGCACAAUCGUUCAAUGAUCCAUGCGCAAGUGAUGUUUGCGUUGCCCUUGGCAGCGGGCAAAAGCUU [theeternabot_sameState_KL_Theo_B_2] | 0.0724 µM
8 | UUUGUGAGUGAUGUUUGCAAUACGUUACCGAAGGAUAUUGUUGCGCCAAGAAGGUCGGAUGGAUCCAUGGGACAUGCCCUGGAGA [theeternabot_sameState_KL_FMN_A_45] | 0.509 µM
9 | UUAGAUCAAAGAUCAGUCUUAUCAAGAGCACGAGGACCGGUACGGCCGCCACUCGAGUGAUGUUCGAGAGCUCUUGUGACAAAUU [AK2 EXC Tryptophan A] | 0.157 µM
10 | UAAAUAAUAAAACGAGUGAUGUUCGACGAUACCAGCCUCGAUAGAGGCCCUUGGCAGCGUAAAUGAUCACAAAGCCAAGGAAUAA [#OpenEnded 1] | 0.158 µM
11 | CGCCAGUGAUGUUGGCGCAGCUACCGGGAAGGAGCGCCGUAGUCGGCAGGUAGGUCGCCCGGGCAGUGAUGUUGCCUCAUACCGU [Exclusion Arginine A GF 21] | 0.258 µM
12 | AAGGAUCAGAGAGUGAUGUUCUCUAAUAAACGAGGACCGGUACGGCCGCCACUCGAAUAAGAUCCAGUCCUACGAAAAGUAGGAC [Omei inspired 6] | 0.485 µM
13 | AAAUAUAGUGAUGUUAUAUAUAUAUGUGAUACCAGAGAAAAGAAACUCCCUUGGCAGCACGAGAGAGAAUUUUUUUUUUAUAUAU [AstrosSSTheA#2] | 0.498 µM
14 | AAUCCUUACGGAGUGAUGUUCCGUAGCGAUACCAGCCAUUGCGAUGGCCCUUGGCAGCGCUAUAAGCAUUGCUAUUAAGGGCCAA [Theo A Ex t7a] | 0.124 µM
15 | GGGAGUAGUGCGGCCGCCACUGAGAAAGAAGAAGAAUAUAGUGAUGUUAUAUAGGAAAUAAAGAAUAGGACCGGGCAUUAGAUUU [SSTRyptB.M] | 0.235 µM
16 | GCUACCUAGGCAGGAUAUCGUAUUGAGUGAUGUUCAAUAACGGUCUACCAAAGGUAGACCGACCUUCGAGAAGGGCCUAGGUAGC | 0.193 µM
17 | AAUUAAUGUAUAGAUUAUAUACAUUAAUCAGAGGAUAUGCAUUAUUGCAGAAGGCUGAAUGCAGUGAUGUUGCAAUAAUAAUUUA [JR_SSFMNA_Sub003] | 0.186 µM
18 | CAGAUAACCUAGGAUACCAGCGUCGCUGACAGGUCGCUGGAGAAGUACAGUGAUGUUGUGCGCCCUUGGCAGCCUGUUUACACAG [theeternabot_exclusion_KL_Theo_B_32] | 0.223 µM
19 | GUGCGGCUAGUGAUGUUGGUUGCGUGGGAAGGAGCGCAGAAACAUGCAGGUAGGUCGCCCACAUCUCGGAUAAGAGACUAAUUCA [Letiisve] | 0.168 µM
20 | GUGGAAAUCAGAAGGAGCGUCUACAAUAAGAAAACCAGUGAUGUUGGUUUUAUUUAAUGAAGACAGGUAGGUCGCUGAAUUUCUA [Same State Arginie B GF 20] | 0.118 µM
21 | AAGCAGUCACUCGAAUCCAUCGAAGAUGGGCGAGGACCGGUACGGCCGCCACUCGGAGUGAUGUUCCGAAGACUGCAAAAUAAAA | 0.419 µM

Same assay, conditions: Eterna round: R107; input ligand: theophylline 20 uM

Row | Sequence | apparent KD of K4 kissing-loop reporter
22 | AUUUAUUCGAGUGAUGUUCGUGUUUUUUCAGAGGAUAUGCGUAAUAGCAGAAGGCUGUUUUAUAUUAUAUUUUGAUUUUUUUAAA [JR_Nu_ExcFMNA_Sub025] | 0.106 µM
23 | AUAAUCUUGCAGUGAUGUUGCAAGAAAGCUCAGGAUAUCAGGAAACUGAGAAGGGAGCAUCCUGAGCACUUGCAACAGUGCUCAG [[K1]-[K2]-[F1]-[F2]-[F]'-[K]'-[F]''_Design3] | 0.288 µM
24 | UUUAUAAAGUCGGCCGCCACUGGUUUUAUUUUUGUUUAAUCUGGAUCAUAGUGAUGUUAUGAGACCAGGACCGGGACAUUUGUUA [#08 K4 Tryptophan B Exclusion] | 0.0938 µM
25 | UAUAUAGUGACGGCCGCCACUAUUGUGAUGUAGUUGUUAGAGUGAUGUUUUGUUGUUUGAUUUUGUAGGACCGGGUUAUAUGUUA [rccrwzmullin] | 0.612 µM
26 | CCCAGUGAUGUUGGGAGUAGCCACAGGGAAGGAGCGUGCUAGAGCACAGGUAGGUCGCCCACUGGGUCAGUGAUGUUGGUCGGGU [Same State Arginine A GF 28] | 0.361 µM
